Measurements from article PMC8733265, “Microscale thermophoresis suggests a new model of regulation of cardiac myosin function via interaction with cardiac myosin-binding protein C” (The Journal of Biological Chemistry, 2021).

B3: recombinant human cardiac myosin tail domain, first 126 amino acids of myosin subfragment-2 (myosin S2Δ) (domain or fragment, UniProt P12883 838-963, looked up)
chain: PLLKSAEREKEMASMKEEFTRLKEALEKSEARRKELEEKMVSLLQEKNDLQLQVQAEQDNLADAEERCDQLIKNKIQLEAKVKEMNERLEDEEEMNAELTAKKRKLEDECSELKRDIDDLELTLAK
modifications: Alexa 647-NHS label where it was the labelled partner; unlabelled where it was titrated
notes: human cardiac (β) myosin heavy chain, first 126 amino acids of subfragment-2; also called myosin tails; source: E. coli BL21(DE3)-RIPL, purified (HisTrapFF, TEV, ion exchange); not shown: His tag, N-terminal, cleaved

Assays:
[1] = target: bovine β-cardiac myosin S1 (bovine) (UniProt Q9BE39); assay: MST; Monolith NT.115; 100 nmol/l Alexa647-labelled protein fixed, partner titrated; 20 mmol/l Mops pH 7, 1 mmol/l MgCl2, 50 mmol/l KCl, 1 mmol/l DTT, 0.05% Tween-20
Chain of bovine β-cardiac myosin S1 (bovine) (Q9BE39 whole entry, chain 1 of 2, the tested form may be a part): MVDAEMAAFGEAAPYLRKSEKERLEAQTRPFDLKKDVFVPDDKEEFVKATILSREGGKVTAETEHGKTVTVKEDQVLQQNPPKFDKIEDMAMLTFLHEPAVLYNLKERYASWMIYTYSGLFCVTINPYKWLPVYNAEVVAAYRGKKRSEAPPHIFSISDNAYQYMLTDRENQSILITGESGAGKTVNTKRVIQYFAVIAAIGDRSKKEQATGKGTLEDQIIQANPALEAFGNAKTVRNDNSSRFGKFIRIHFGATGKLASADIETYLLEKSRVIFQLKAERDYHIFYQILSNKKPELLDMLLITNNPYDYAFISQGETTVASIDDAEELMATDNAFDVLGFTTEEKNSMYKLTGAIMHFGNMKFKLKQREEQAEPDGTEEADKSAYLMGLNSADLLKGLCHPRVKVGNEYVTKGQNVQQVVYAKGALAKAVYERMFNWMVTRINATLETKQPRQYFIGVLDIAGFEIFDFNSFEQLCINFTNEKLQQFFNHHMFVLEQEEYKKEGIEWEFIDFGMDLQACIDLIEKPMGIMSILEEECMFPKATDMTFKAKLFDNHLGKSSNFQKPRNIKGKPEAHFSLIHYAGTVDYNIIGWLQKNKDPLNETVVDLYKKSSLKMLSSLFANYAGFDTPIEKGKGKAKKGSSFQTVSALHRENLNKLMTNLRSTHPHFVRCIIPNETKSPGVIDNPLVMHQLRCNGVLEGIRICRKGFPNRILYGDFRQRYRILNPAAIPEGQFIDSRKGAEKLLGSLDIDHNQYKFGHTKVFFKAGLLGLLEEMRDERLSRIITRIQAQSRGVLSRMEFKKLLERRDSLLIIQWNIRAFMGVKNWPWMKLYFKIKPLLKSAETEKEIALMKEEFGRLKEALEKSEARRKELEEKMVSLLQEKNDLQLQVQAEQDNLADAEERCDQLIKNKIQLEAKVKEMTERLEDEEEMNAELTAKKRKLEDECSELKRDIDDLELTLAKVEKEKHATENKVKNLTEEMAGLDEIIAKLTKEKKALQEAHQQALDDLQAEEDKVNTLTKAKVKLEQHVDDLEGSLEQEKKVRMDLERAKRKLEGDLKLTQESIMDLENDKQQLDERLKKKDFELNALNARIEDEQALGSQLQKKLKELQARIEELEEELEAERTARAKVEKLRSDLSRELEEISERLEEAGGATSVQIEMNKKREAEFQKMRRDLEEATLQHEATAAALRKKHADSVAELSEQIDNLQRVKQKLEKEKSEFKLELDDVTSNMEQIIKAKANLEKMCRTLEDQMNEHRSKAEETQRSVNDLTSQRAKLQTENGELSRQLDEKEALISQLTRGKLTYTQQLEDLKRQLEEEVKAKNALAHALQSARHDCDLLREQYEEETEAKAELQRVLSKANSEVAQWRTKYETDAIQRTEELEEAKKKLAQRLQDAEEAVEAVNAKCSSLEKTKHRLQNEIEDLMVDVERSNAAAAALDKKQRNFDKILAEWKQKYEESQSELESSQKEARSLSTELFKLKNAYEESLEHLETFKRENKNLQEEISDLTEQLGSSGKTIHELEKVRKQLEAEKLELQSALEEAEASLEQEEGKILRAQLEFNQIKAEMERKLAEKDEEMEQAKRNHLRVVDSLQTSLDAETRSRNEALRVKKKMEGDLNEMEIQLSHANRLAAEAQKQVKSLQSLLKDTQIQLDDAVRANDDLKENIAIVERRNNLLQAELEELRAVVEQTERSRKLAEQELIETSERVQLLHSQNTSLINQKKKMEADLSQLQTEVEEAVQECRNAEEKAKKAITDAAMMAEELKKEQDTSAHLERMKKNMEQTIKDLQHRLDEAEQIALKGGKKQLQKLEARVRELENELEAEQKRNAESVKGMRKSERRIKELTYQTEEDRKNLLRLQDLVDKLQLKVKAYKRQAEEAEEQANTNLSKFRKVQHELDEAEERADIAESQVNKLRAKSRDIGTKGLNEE
Chain of bovine β-cardiac myosin S1 (bovine) (P85100 whole entry, chain 2 of 2, further chain, the tested form may be a part): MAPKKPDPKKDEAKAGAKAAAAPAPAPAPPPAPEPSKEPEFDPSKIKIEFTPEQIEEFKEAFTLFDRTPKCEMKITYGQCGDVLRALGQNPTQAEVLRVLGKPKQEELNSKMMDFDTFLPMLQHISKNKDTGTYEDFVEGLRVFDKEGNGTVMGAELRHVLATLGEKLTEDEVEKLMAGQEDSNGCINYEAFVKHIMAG

[2] = target: recombinant human cardiac myosin tail domain, first 126 amino acids of myosin subfragment-2 (myosin S2Δ) (human) (UniProt P12883); assay: as above
[3] = target: bovine β-cardiac myosin S1 (bovine) (UniProt Q9BE39); assay: MST; competition: C5C7 titrated into a mixture of Alexa647-labelled myosin S1 and C2C4
[4] = target: bovine β-cardiac myosin S1 myosin S1 (head domain) (UniProt Q9BE39); assay: microscale thermophoresis titration; conditions: reference: unphosphorylated C0C2
[5] = target: human cardiac myosin tail domain (myosin S2Δ; also the heavy-chain part of miniHMM) miniHMM heavy-chain part containing myosin S2Δ (UniProt P12883); assay: microscale thermophoresis titration; conditions: reference: unphosphorylated C0C2
[6] = target: human cardiac myosin tail domain (myosin S2Δ; also the heavy-chain part of miniHMM) miniHMM heavy-chain part containing myosin S2Δ (UniProt P12883); assay: microscale thermophoresis titration; conditions: reference: unphosphorylated C0C2; remark: listed apart in the source
[7] = target: cMyBP-C (cardiac myosin-binding protein C) C0C2 (C0-P/A-C1-m-C2) (UniProt Q14896); assay: microscale thermophoresis titration; conditions: reference: unphosphorylated miniHMM
[8] = target: cMyBP-C (cardiac myosin-binding protein C) C0C2 (C0-P/A-C1-m-C2) (UniProt Q14896); assay: microscale thermophoresis titration; conditions: reference: unphosphorylated miniHMM; remark: listed apart in the source
[9] = target: miniHMM, recombinant fragment of human cardiac myosin containing the myosin S2Δ tail domain bound to two RLCs (human), P12883; assay: MST; as the other MST titrations but pH adjusted to 6.2 for the isolated m-motif; 100 nmol/l Alexa647-labelled protein fixed
[10] = target: T1, bovine β-cardiac myosin S1 (bovine, UniProt Q9BE39 1-1935; P85100 1-199; Q3SZE5 1-166, Alexa 647-NHS label (chain and site not stated)); assay: as above; conditions: both partners purified
T1 construct: β-cardiac myosin heavy chain (MHC), bovine, the part that lies in subfragment 1; essential light chain (ELC) of bovine cardiac myosin, labelled on the gel of isolated S1; regulatory light chain (RLC) of bovine cardiac myosin, labelled on the gel of isolated S1; the text says that an intact RLC neck region is not present in this S1; Used at 100 nmol/l as the Alexa647-labelled partner in MST; also …
T1 sequence (Q9BE39 whole entry, chain 1 of 2, the tested form may be a part): as the sequence (Q9BE39 whole entry, chain 1 of 2, the tested form may be a part) above
T1 sequence (P85100 whole entry, chain 2 of 2, the tested form may be a part): as the sequence (P85100 whole entry, chain 2 of 2, further chain, the tested form may be a part) above

[11] = target: B3; assay: as above; conditions: both partners purified
[12] = target: T1, bovine β-cardiac myosin S1; assay: MST; Monolith NT.115; 100 nmol/l Alexa647-labelled protein fixed, partner titrated; 20 mmol/l Mops pH 7, 1 mmol/l MgCl2, 50 mmol/l KCl, 1 mmol/l DTT, 0.05% Tween-20
[13] = target: T2, C0C1 fragment of cMyBP-C (UniProt Q14896 1-258); assay: as above; conditions: both partners purified
T2 construct: also called C0-P/A-C1; source: E. coli BL21(DE3)-RIPL, purified (HisTrapFF, TEV, ion exchange); not shown: His tag, N-terminal, cleaved
T2 sequence (Q14896 1-258): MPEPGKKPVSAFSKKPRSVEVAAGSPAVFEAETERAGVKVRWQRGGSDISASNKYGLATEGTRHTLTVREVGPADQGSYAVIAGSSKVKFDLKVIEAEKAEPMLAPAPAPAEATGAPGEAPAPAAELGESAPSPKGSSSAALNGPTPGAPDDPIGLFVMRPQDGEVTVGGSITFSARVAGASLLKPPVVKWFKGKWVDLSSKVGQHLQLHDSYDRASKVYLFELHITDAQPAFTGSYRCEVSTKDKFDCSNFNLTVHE

[14] = target: T3, C5C7 segment of cMyBP-C (UniProt Q14896 645-967); assay: as above; conditions: both partners purified
T3 construct: also called C5–C6–C7; wildtype C5C7; source: E. coli BL21(DE3)-RIPL, purified (HisTrapFF, TEV, ion exchange); not shown: His tag, N-terminal, cleaved
T3 sequence (looked up): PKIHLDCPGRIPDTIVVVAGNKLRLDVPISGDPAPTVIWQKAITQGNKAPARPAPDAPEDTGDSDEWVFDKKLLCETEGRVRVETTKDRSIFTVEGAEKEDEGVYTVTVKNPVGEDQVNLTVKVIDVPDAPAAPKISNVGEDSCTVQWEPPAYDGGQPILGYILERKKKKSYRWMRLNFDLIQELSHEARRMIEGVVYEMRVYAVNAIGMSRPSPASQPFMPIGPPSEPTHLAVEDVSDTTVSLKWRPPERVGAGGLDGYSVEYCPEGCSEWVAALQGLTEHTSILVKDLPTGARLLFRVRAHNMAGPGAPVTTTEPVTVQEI

[15] = target: T4, domain C0 of cMyBP-C (UniProt Q14896 1-101); assay: as above; conditions: both partners purified
T4 construct: source: E. coli BL21(DE3)-RIPL, purified (HisTrapFF, TEV, ion exchange); not shown: His tag, N-terminal, cleaved
T4 sequence (Q14896 1-101): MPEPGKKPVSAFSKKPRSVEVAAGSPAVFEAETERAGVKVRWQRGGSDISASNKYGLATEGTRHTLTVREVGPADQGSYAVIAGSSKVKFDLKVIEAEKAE

[16] = target: T5, domain C1 of cMyBP-C (UniProt Q14896 151-258); assay: as above; conditions: both partners purified
T5 construct: source: E. coli BL21(DE3)-RIPL, purified (HisTrapFF, TEV, ion exchange); not shown: His tag, N-terminal, cleaved
T5 sequence (Q14896 151-258): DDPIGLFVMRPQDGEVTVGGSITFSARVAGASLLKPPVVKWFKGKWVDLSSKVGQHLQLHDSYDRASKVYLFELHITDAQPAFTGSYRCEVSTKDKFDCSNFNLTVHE

[17] = target: T6, domain C2 of cMyBP-C (UniProt Q14896 362-452); assay: as above; conditions: both partners purified
T6 construct: source: E. coli BL21(DE3)-RIPL, purified (HisTrapFF, TEV, ion exchange); not shown: His tag, N-terminal, cleaved
T6 sequence (Q14896 362-452): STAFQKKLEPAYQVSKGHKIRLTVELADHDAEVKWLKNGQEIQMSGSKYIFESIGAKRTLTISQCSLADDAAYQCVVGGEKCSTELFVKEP

[18] = target: T7, C0C2, cMyBP-C spanning domains C0 to C2 (UniProt Q14896 1-452); assay: as above; conditions: both partners purified
T7 construct: also called N-terminal domains (NTD) of cMyBP-C; C0-P/A-C1-m-C2; source: E. coli BL21(DE3)-RIPL, purified (HisTrapFF, TEV, ion exchange); not shown: His tag, N-terminal, cleaved
T7 sequence (Q14896 1-452): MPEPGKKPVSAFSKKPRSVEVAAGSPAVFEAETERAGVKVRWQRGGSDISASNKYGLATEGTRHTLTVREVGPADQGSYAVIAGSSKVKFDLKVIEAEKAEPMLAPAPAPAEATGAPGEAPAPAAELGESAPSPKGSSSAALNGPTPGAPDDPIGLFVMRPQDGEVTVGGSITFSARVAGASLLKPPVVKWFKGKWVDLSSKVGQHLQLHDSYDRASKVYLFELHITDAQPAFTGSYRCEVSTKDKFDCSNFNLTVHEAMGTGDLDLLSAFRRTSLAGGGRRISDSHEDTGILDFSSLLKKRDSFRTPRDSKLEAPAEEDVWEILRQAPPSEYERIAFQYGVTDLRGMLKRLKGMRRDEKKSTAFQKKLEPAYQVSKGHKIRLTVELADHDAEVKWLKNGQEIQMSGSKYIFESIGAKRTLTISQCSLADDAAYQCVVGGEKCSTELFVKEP

[19] = target: T8, C2C4 segment of cMyBP-C (UniProt Q14896 362-633); assay: as above; conditions: both partners purified
T8 construct: also called C2–C3–C4; C2C4 module; source: E. coli BL21(DE3)-RIPL, purified (HisTrapFF, TEV, ion exchange); not shown: His tag, N-terminal, cleaved
T8 sequence (Q14896 362-633): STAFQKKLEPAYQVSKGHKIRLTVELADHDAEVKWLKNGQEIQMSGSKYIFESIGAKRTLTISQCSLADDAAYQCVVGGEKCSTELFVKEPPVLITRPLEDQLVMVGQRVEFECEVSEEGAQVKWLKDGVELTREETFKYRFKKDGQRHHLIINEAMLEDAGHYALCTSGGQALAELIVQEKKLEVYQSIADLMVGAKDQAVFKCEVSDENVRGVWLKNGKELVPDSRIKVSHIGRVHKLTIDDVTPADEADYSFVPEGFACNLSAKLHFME

In the case of “C0C1 fragment of cMyBP-C (from UniProt Q14896 1-258) (domain or fragment)”, the Kd [1] is reported as 3.8 µM.

Work on “C0C2, cMyBP-C spanning domains C0 to C2 (from UniProt Q14896 1-452) (domain or fragment)” yielded a Kd [1] of 3.4 µM and a Kd [2] of 6.5 µM.

“C0C2-3P, tris-phosphorylated C0C2 (from UniProt Q14896 1-452) (domain or fragment)” showed a Kd [1] of 2.2 µM.

In the case of “C0C2-truncated cMyBP-C (ΔC0C2-cMyBP-C) (from UniProt Q14896 453-1274) (domain or fragment)”, the Kd [1] is reported as 0.51 µM.

In the case of “C2C4 segment of cMyBP-C (from UniProt Q14896 362-633) (domain or fragment)”, the Kd [1] is reported as 0.38 µM.

“C5C7 segment of cMyBP-C (from UniProt Q14896 645-967) (domain or fragment)” was tested, and the EC50 [3] was 3.8 µM and the Kd [1] was 0.77 µM.

For “C5C7-N755K (from UniProt Q14896 1-1274) (domain or fragment)”, the Kd [1] was 0.43 µM and the Kd [2] was 73.9 µM.

“C5C7-R820Q (from UniProt Q14896 1-1274) (domain or fragment)” gave a Kd [1] of 1.3 µM and a Kd [2] of 59.1 µM.

“C5C7-R943Q (from UniProt Q14896 1-1274) (domain or fragment)” was tested, and the Kd [1] was 0.61 µM and the Kd [2] was 32.6 µM.

For “cMyBP-C (cardiac myosin-binding protein C) C0C2 (C0-P/A-C1-m-C2) (from UniProt Q14896) PKA tris-phosphorylated C0C2-3P, IEC purified”, the KD [4] was “same; reference 3.4 ± 0.3”, the KD [5] was “weaker; reference 3.4 ± 0.1” and the KD [6] was “weaker; reference 2.7 ± 0.1”.

For “domain C0 of cMyBP-C (from UniProt Q14896 1-101) (domain or fragment)”, the Kd [1] was 91.3 µM.

“domain C1 of cMyBP-C (from UniProt Q14896 151-258) (domain or fragment)” was tested, and the Kd [1] was 3.8 µM.

With “domain C2 of cMyBP-C (from UniProt Q14896 362-452) (domain or fragment)” the Kd [1] was 42.3 µM.

“domain C3 of cMyBP-C (from UniProt Q14896 453-543) (domain or fragment)” gave a Kd [1] of 25 µM.

“domain C4 of cMyBP-C (from UniProt Q14896 544-633) (domain or fragment)” gave a Kd [1] of 2.5 µM.

In the case of “full-length cardiac myosin-binding protein C (cMyBP-C) (from UniProt Q14896 1-1274) (natural protein)”, the Kd [1] is reported as 0.3 µM.

“myosin regulatory light chain (RLC) in miniHMM (from UniProt P10916) cMLCK-phosphorylated miniHMM” was tested, and the KD [7] was “same; reference 3.4 ± 0.1” and the KD [8] was “stronger; reference 9.7 ± 0.5”.

B1: isolated m-motif of cMyBP-C (domain or fragment)
chain: HEAMGTGDLDLLSAFRRTSLAGGGRRISDSHEDTGILDFSSLLKKRDSFRTPRDSKLEAPAEEDVWEILRQAPPSEYERIAFQYGVTDLRGMLKRLKGMRRDEKK
modifications: here or on the partner: Unphosphorylated (bacterial expression). Limits taken as the interval between the annotated C1 (153-256) and C2 (362-452) domains. / Limits not printed. C-terminus from S2Δ as the first 126 residues o
B1 gave a Kd [9] of 49.7 µM.

B2: isolated m-motif of cMyBP-C (domain or fragment)
chain: HEAMGTGDLDLLSAFRRTSLAGGGRRISDSHEDTGILDFSSLLKKRDSFRTPRDSKLEAPAEEDVWEILRQAPPSEYERIAFQYGVTDLRGMLKRLKGMRRDEKK
B2 was tested, and the Kd [10] was 183 µM and the Kd [11] was 41.4 µM.

B3 gave a Kd [12] of 0.6 µM, a Kd [13] of 199 µM and a Kd [14] of 25.8 µM.

B4: miniHMM, recombinant fragment of human cardiac myosin containing the myosin S2Δ tail domain bound to two RLCs (complex)
chain 1: RDSLLVIQWNIRAFMGVKNWPWMKLYFKIKPLLKSAEREKEMASMKEEFTRLKEALEKSEARRKELEEKMVSLLQEKNDLQLQVQAEQDNLADAEERCDQLIKNKIQLEAKVKEMNERLEDEEEMNAELTAKKRKLEDECSELKRDIDDLELTLAK
chain 2: APKKAKKRAGGANSNVFSMFEQTQIQEFKEAFTIMDQNRDGFIDKNDLRDTFAALGRVNVKNEEIDEMIKEAPGPINFTVFLTMFGEKLKGADPEETILNAFKVFDPEGKGVLKADYVREMLTTQAERFSKEEVDQMFAAFPPDVTGNLDYKNLVHIITHGEEKD
modifications: Limits not printed. C-terminus from S2Δ as the first 126 residues of S2 (838-963 by convention). N-terminus taken at the start of the RLC-binding heavy-chain helix (about 808). RLC initiator Met …
B4 was tested, and the Kd [15] was 335 µM, the Kd [16] was 17 µM and the Kd [17] was 502 µM. The Kd [18] was 3.4 µM, the Kd [13] was 10.3 µM and the Kd [19] was 4.7 µM. It also gave a Kd [14] of 3.2 µM.
